Numbering of substitutions follows the chain as printed.
How the values were obtained:
[1] = biological target: T1, CXCR3 Y271A (Homo sapiens, UniProt P49682, Y271A); test: Whole-cell 125I-CXCL11 binding assay, L1.2 transfectants; conditions: maximum concentration of CXCL11
T1 construct: expressed in transfected cells; host or cells: murine pre-B cell line L1.2, transient transfection
T1 sequence (P49682 1-368 Y271A): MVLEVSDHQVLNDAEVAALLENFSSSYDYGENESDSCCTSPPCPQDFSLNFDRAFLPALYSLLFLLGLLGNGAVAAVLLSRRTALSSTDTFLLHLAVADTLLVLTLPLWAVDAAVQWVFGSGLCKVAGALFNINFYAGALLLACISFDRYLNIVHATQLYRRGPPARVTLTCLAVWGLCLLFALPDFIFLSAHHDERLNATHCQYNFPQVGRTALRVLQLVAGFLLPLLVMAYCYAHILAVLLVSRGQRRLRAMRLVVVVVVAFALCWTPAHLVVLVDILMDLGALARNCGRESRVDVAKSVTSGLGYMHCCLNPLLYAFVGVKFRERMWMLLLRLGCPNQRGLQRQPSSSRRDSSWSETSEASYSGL
Method: (§1) A previously described pcDNA3 plasmid containing human wild type (WT) CXCR3 cDNA with an HA epitope tag encoded at the N terminus (Meiser et al., [2008]) was used as a template for the generation of point mutants by PCR using the QuikChange II site-directed mutagenesis kit (Stratagene, Amsterdam, the Netherlands). All constructs were verified by DNA sequencing (Eurofins MWG Operon, Ebersberg, Germany) before use. L1.2 cells were transiently transfected by electroporation with 1 μg of vector DNA/10^6 cells at 330V, 975μF and incubated overnight in medium supplemented with 10 mM of sodium butyrate to enhance gene expression.
Whole-cell binding assays on transiently transfected L1.2 cells were performed as described previously (Vaidehi et al., [2009]) using 0.1 nM ^125I-CXCL11 (Perkin Elmer) and increasing concentrations of unlabeled CXCL11 or antagonist. Cell-associated radioactivity was counted in a Canberra Packard Cobra 5010 gamma counter (Canberra Packard, Pangebourne, UK). Curve fitting and subsequent data analysis was carried out using the program PRISM (GraphPad Software, Inc., San Diego, CA, USA) and IC50 values were obtained by non-linear regression analysis. In all experiments, each data point was assayed in duplicate, with each individual experiment repeated three times. Background binding levels obtained in the presence of a 1000–3000 molar excess of unlabelled chemokine were subtracted from each data point and data are presented as the percentage of counts obtained in the absence of competing ligand. KD values and the number of binding sites per cell were calculated from homologous binding curves prepared in Graph Pad Prism (La Jolla, CA, USA) as previously described (Nedjai et al., [2011]).

[2] = biological target: T2, CXCR3 F207A (Homo sapiens, UniProt P49682, F207A); test: Chemotaxis assay, L1.2 transfectants migrating to CXCL11; type: cell-based
T2 construct: expressed in transfected cells; host or cells: murine pre-B cell line L1.2, transient transfection
T2 sequence (P49682 1-368 F207A): T1 sequence (P49682 1-368 Y271A) with F207A, A271Y
Method: as §1
(§2) Assays of chemotactic responsiveness were carried out as previously described (Vaidehi et al., [2009]) using 96-well ChemoTx® plates with 5 μm pores (Neuroprobe, Gaithersburg, MD, USA). Migrating cells were detected by the use of CellTiter Glo® Dye (Promega, Southampton, UK) and resulting luminescence measured using a TopCount scintillation counter (PerkinElmer, Waltham, MA, USA). Basal migration of cells to buffer alone was subtracted from the resulting data, with individual results expressed as a percentage of the total cells applied to the filter. In all experiments, each data point was assayed in duplicate. In every experiment, cells transiently expressing WT CXCR3 were used as a positive control.

[3] = biological target: T3, CXCR3 V275A (Homo sapiens, UniProt P49682, V275A); test: as above; type: cell-based
T3 construct: expressed in transfected cells; host or cells: murine pre-B cell line L1.2, transient transfection
T3 sequence (P49682 1-368 V275A): T1 sequence (P49682 1-368 Y271A) with A271Y, V275A
Method: as §1, §2

[4] = biological target: T4, CXCR3 N132A (Homo sapiens, UniProt P49682, N132A); test: as above; type: cell-based
T4 construct: expressed in transfected cells; host or cells: murine pre-B cell line L1.2, transient transfection
T4 sequence (P49682 1-368 N132A): T1 sequence (P49682 1-368 Y271A) with N132A, A271Y
Method: as §1, §2

[5] = biological target: T5, CXCR3 Y205A (Homo sapiens, UniProt P49682, Y205A); test: as above; type: cell-based
T5 construct: expressed in transfected cells; host or cells: murine pre-B cell line L1.2, transient transfection
T5 sequence (P49682 1-368 Y205A): T1 sequence (P49682 1-368 Y271A) with Y205A, A271Y
Method: as §1, §2

displacement of 125I-CXCL11 by unlabelled CXCL11 [1]: unable to displace 50%
% of WT chemotaxis to 30 nM CXCL11 (mean ± SEM) [2]: 0.8 ± 0.8%
% of WT chemotaxis to 30 nM CXCL11 (mean ± SEM) [3]: 52.9 ± 8.2%
% of WT chemotaxis to 30 nM CXCL11 (mean ± SEM) [4]: 0.7 ± 0.5%
% of WT chemotaxis to 30 nM CXCL11 (mean ± SEM) [5]: 35.5 ± 21.5%
Substance: CXCL11: recombinant human chemokine, CXCR3 agonist, purchased from PeproTech

Source: publication PMC4376459, “CXCR3 antagonist VUF10085 binds to an intrahelical site distinct from that of the broad spectrum antagonist TAK-779” (British Journal of Pharmacology, 2015)
